Assay [1] deals with human mature interleukin-1β (IL-1β, amino acids 117-269) (human). The experiment in a line: time-resolved fluorometric immunoassay (TRFIA); 60 pmol IL-8 or IL-1β coated on wells; emHofQ wild type and mutants 5 nM-2 μM, 4°C overnight; Eu-N1 anti-6xHis antibody; apparent Kd.
Assay [2] has as its target recombinant mature interleukin-8 (IL-8) (human). The description is as above.
Assay [3] has as its target human mature interleukin-1β (IL-1β, amino acids 117-269) (human). The experiment in a line: time-resolved fluorometric immunoassay (TRFIA); 6 pmol IL-8 or IL-1β coated on wells; C-His-emHofQ 10-740 nM in Delfia Assay Buffer, RT 1 h; Eu-N1 anti-6xHis antibody; one-to-one fit.
Assay [4] concerns the target recombinant mature interleukin-8 (IL-8) (human). Described as above.
The target of assay [5] is human mature interleukin-1β (IL-1β, amino acids 117-269) (human). Nature of the assay: ELISA; cytokines (6 pmol per well) coated on Maxisorp plates; 490 nM emHofQ with C-terminal 8-His tail in PBS, 4°C overnight; detection with His-Probe-HRP; values compared with BSA control. (In general: An ELISA detects its analyte on a solid surface through an enzyme-linked reagent.)
Assay [6] has as its target recombinant mature interleukin-8 (IL-8) (human). The description is as above.
In assay [7] the target is human mature interleukin-1β (IL-1β, amino acids 117-269) (human). Nature of the assay: thermal shift assay (differential scanning fluorometry); PBS, SYPRO orange; 5 μM emHofQ with 5-200 μM IL-8, or 5 μM IL-1β with 2.5-50 μM emHofQ; heated 20-99°C. On the technique in general: DSF heats the sample and reads unfolding from a dye or from intrinsic fluorescence.
In assay [8] the target is recombinant emHofQ (without a His tail) (Aggregatibacter actinomycetemcomitans). The assay is described as above.
Assay [9] has as its target N-His-emHofQ (Aggregatibacter actinomycetemcomitans). Nature of the assay: SPR; Biacore X; N-His-emHofQ coupled to Ni-NTA chip (115-199 RU); IL-8 injected at 1-15 000 nM, 30 μl/min; 10 mM HEPES, 150 mM NaCl, 0.005% P-20, pH 7.4; one-site binding model; apparent. In general terms: SPR reads the build-up and loss of mass on a sensor chip optically.

This note sets out measurements from article PMC6086316.

pKd: −log10 of the molar value.

The term pKd denotes the negative decadic logarithm of the Kd, by convention in mol/L.

human mature interleukin-1β (IL-1β, amino acids 117-269) (human), sequence (P01584 117-269): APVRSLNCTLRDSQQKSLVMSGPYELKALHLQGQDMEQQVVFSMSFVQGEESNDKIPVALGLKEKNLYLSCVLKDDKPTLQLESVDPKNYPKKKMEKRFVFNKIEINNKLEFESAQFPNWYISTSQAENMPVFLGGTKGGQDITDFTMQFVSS

On to “C-His emHofQ (extramembranous domain of the secretin HofQ, C-terminal His tag) (domain or fragment)”, for which the pKd in assay [1] was 7.05; in assay [2] it was 7.36; in [3], 6.85; in [4], 7.37. The fold binding over the control (BSA) came out at 1.3 fold in assay [5] and 4 fold in [6].

For “emHofQ_L1 (H136A, F137A, K139A) (domain or fragment)”, the pKd in assay [2] is 6.72.

For “emHofQ_L1L2 (H136A, F137A, K139A, D165A, R166A) (domain or fragment)”, in assay [2], the pKd is 6.70.

Regarding “emHofQ_L2 (D165A, R166A) (domain or fragment)”, in assay [2], the pKd is 6.96.

For the substance “recombinant emHofQ (without a His tail) (domain or fragment)”, the Tm of IL-1β with 50 μM emHofQ (60.2°C without) in [7] was 55.8 °C.

On to “recombinant mature interleukin-8 (IL-8) (natural protein)”, for which the Tm of emHofQ with 200 μM IL-8 (45.3°C without) in [8] worked out at 51.7 °C. In [9], the pKd is 5.62.
